6 proteins from article PMC6497955, “Development and structural characterization of an engineered multi-copper oxidase reporter of protein–protein interactions” (The Journal of Biological Chemistry, 2019) can be followed below.

Substrate in this data set: COc1cc(C=NN=Cc2cc(OC)c(O)c(OC)c2)cc(OC)c1O
The data set is described as follows: purified protein. Type of data set: biochemical, Escherichia coli. To be noted: 50 mM acetate pH 5.2, 0.33 mM copper, room temperature.

[1] abbreviates: CueO-12.1, graft PRFMDYWEGLN (from primers; residues 384–394 replaced).
Where [2] appears, read: CueO-12.1CON, graft PRAMDYAEGAN (from primers).
[3] abbreviates: CueO-PM2, graft TSFAEYWALLS (from primers), no MDM2.
Setting [4] is: CueO-HA, HA epitope graft TSYPYDVPDYA (from primers), no antibody.

B1: CueO (Escherichia coli K-12; G386R/G389D/G391W/H387F/H390Y/H395N/M358I/M385P/M393G/N392E/N394L) (protein)
chain: AERPTLPIPDLLTTDARNRIQLTIGAGQSTFGGKTATTWGYNGNLLGPAVKLQRGKAVTVDIYNQLTEETTLHWHGLEVPGEVDGGPQGIIPPGGKRSVTLNVDQPAATCWFHPHQHGKTGRQVAMGLAGLVVIEDDEILKLMLPKQWGIDDVPVIVQDKKFSADGQIDYQLDVMTAAVGWFGDTLLTNGAIYPQHAAPRGWLRLRLLNGCNARSLNFATSDNRPLYVIASDGGLLPEPVKVSELPVLMGERFEVLVEVNDNKPFDLVTLPVSQMGMAIAPFDKPHPVMRIQPIAISASGALPDTLSSLPALPSLEGLTVRKLQLSMDPILDMMGMQMLMEKYGDQAMAGMDHSQMPRFMDYWEGLNMNHGGKFDFHHANKINGQAFDMNKPMFAAAKGQYERWVISGVGDMMLHPFHIHGTQFRILSENGKPPAAHRAGWKDTVKVEGNVSEVLVKFNHDAPKEHAYMAHCHLLEHEDTGMMLGFTV
notes: C-terminal His6 tag, pET22b, full-length gene cloned, expressed in E. coli BL21(DE3); crystal models start at residue 29/30; given PDB entries are of the CueO-12.1 and CueO-PM2 variants
Consider B1, for which, under setting [1], the Km was determined as 290.65 ± 44.33 µM, the kcat was 1.03 ± 0.0613 s⁻¹ and the catalytic efficiency (kcat/Km) was 3500 M⁻¹ s⁻¹.

B2: CueO (Escherichia coli K-12; G386R/G389D/G391A/H387A/H390Y/H395N/M358I/M385P/M393G/N392E/N394A) (protein)
chain: AERPTLPIPDLLTTDARNRIQLTIGAGQSTFGGKTATTWGYNGNLLGPAVKLQRGKAVTVDIYNQLTEETTLHWHGLEVPGEVDGGPQGIIPPGGKRSVTLNVDQPAATCWFHPHQHGKTGRQVAMGLAGLVVIEDDEILKLMLPKQWGIDDVPVIVQDKKFSADGQIDYQLDVMTAAVGWFGDTLLTNGAIYPQHAAPRGWLRLRLLNGCNARSLNFATSDNRPLYVIASDGGLLPEPVKVSELPVLMGERFEVLVEVNDNKPFDLVTLPVSQMGMAIAPFDKPHPVMRIQPIAISASGALPDTLSSLPALPSLEGLTVRKLQLSMDPILDMMGMQMLMEKYGDQAMAGMDHSQMPRAMDYAEGANMNHGGKFDFHHANKINGQAFDMNKPMFAAAKGQYERWVISGVGDMMLHPFHIHGTQFRILSENGKPPAAHRAGWKDTVKVEGNVSEVLVKFNHDAPKEHAYMAHCHLLEHEDTGMMLGFTV
notes: as for B1
For the protein B2, under setting [2], the Km worked out at 234.51 ± 41.99 µM, the kcat amounted to 1.61 ± 0.238 s⁻¹ and the kcat/Km is 6830 M⁻¹ s⁻¹.

B3: CueO (Escherichia coli K-12; G386S/G389E/G391W/H387F/H390Y/H395S/M358I/M385T/M388A/M393L/N392A/N394L) (protein)
chain: AERPTLPIPDLLTTDARNRIQLTIGAGQSTFGGKTATTWGYNGNLLGPAVKLQRGKAVTVDIYNQLTEETTLHWHGLEVPGEVDGGPQGIIPPGGKRSVTLNVDQPAATCWFHPHQHGKTGRQVAMGLAGLVVIEDDEILKLMLPKQWGIDDVPVIVQDKKFSADGQIDYQLDVMTAAVGWFGDTLLTNGAIYPQHAAPRGWLRLRLLNGCNARSLNFATSDNRPLYVIASDGGLLPEPVKVSELPVLMGERFEVLVEVNDNKPFDLVTLPVSQMGMAIAPFDKPHPVMRIQPIAISASGALPDTLSSLPALPSLEGLTVRKLQLSMDPILDMMGMQMLMEKYGDQAMAGMDHSQMTSFAEYWALLSMNHGGKFDFHHANKINGQAFDMNKPMFAAAKGQYERWVISGVGDMMLHPFHIHGTQFRILSENGKPPAAHRAGWKDTVKVEGNVSEVLVKFNHDAPKEHAYMAHCHLLEHEDTGMMLGFTV
notes: as for B1
Turning to B3, under setting [3], the Km turned out to be 284.77 ± 25.50 µM, the turnover number (kcat) was 0.811 ± 0.0288 s⁻¹ and the kcat/Km was 2830 M⁻¹ s⁻¹.

B4: CueO (Escherichia coli K-12; M358I) (protein)
chain: AERPTLPIPDLLTTDARNRIQLTIGAGQSTFGGKTATTWGYNGNLLGPAVKLQRGKAVTVDIYNQLTEETTLHWHGLEVPGEVDGGPQGIIPPGGKRSVTLNVDQPAATCWFHPHQHGKTGRQVAMGLAGLVVIEDDEILKLMLPKQWGIDDVPVIVQDKKFSADGQIDYQLDVMTAAVGWFGDTLLTNGAIYPQHAAPRGWLRLRLLNGCNARSLNFATSDNRPLYVIASDGGLLPEPVKVSELPVLMGERFEVLVEVNDNKPFDLVTLPVSQMGMAIAPFDKPHPVMRIQPIAISASGALPDTLSSLPALPSLEGLTVRKLQLSMDPILDMMGMQMLMEKYGDQAMAGMDHSQMMGHMGHGNMNHMNHGGKFDFHHANKINGQAFDMNKPMFAAAKGQYERWVISGVGDMMLHPFHIHGTQFRILSENGKPPAAHRAGWKDTVKVEGNVSEVLVKFNHDAPKEHAYMAHCHLLEHEDTGMMLGFTV
notes: as for B1
Regarding B4, the Km amounted to 256.09 ± 9.59 µM, the kcat is 2.24 ± 0.19 s⁻¹ and the kcat/Km was determined as 8830 M⁻¹ s⁻¹.

B5: CueO (Escherichia coli K-12; G386S/G389Y/G391V/H387Y/H390D/H395A/M358I/M385T/M388P/M393D/N392P/N394Y) (protein)
chain: AERPTLPIPDLLTTDARNRIQLTIGAGQSTFGGKTATTWGYNGNLLGPAVKLQRGKAVTVDIYNQLTEETTLHWHGLEVPGEVDGGPQGIIPPGGKRSVTLNVDQPAATCWFHPHQHGKTGRQVAMGLAGLVVIEDDEILKLMLPKQWGIDDVPVIVQDKKFSADGQIDYQLDVMTAAVGWFGDTLLTNGAIYPQHAAPRGWLRLRLLNGCNARSLNFATSDNRPLYVIASDGGLLPEPVKVSELPVLMGERFEVLVEVNDNKPFDLVTLPVSQMGMAIAPFDKPHPVMRIQPIAISASGALPDTLSSLPALPSLEGLTVRKLQLSMDPILDMMGMQMLMEKYGDQAMAGMDHSQMTSYPYDVPDYAMNHGGKFDFHHANKINGQAFDMNKPMFAAAKGQYERWVISGVGDMMLHPFHIHGTQFRILSENGKPPAAHRAGWKDTVKVEGNVSEVLVKFNHDAPKEHAYMAHCHLLEHEDTGMMLGFTV
notes: as for B1
With B5, under setting [4], the Km was determined as 286.06 ± 22.89 µM, the kcat came out at 1.49 ± 0.151 s⁻¹ and the kcat/Km was 5170 M⁻¹ s⁻¹.

B6: CueO (Escherichia coli K-12) (protein)
chain: AERPTLPIPDLLTTDARNRIQLTIGAGQSTFGGKTATTWGYNGNLLGPAVKLQRGKAVTVDIYNQLTEETTLHWHGLEVPGEVDGGPQGIIPPGGKRSVTLNVDQPAATCWFHPHQHGKTGRQVAMGLAGLVVIEDDEILKLMLPKQWGIDDVPVIVQDKKFSADGQIDYQLDVMTAAVGWFGDTLLTNGAIYPQHAAPRGWLRLRLLNGCNARSLNFATSDNRPLYVIASDGGLLPEPVKVSELPVLMGERFEVLVEVNDNKPFDLVTLPVSQMGMAIAPFDKPHPVMRIQPIAISASGALPDTLSSLPALPSLEGLTVRKLQLSMDPMLDMMGMQMLMEKYGDQAMAGMDHSQMMGHMGHGNMNHMNHGGKFDFHHANKINGQAFDMNKPMFAAAKGQYERWVISGVGDMMLHPFHIHGTQFRILSENGKPPAAHRAGWKDTVKVEGNVSEVLVKFNHDAPKEHAYMAHCHLLEHEDTGMMLGFTV
notes: as for B1
As to B6, for the setting “CueO-WT (358 reverted to Met)”, the Michaelis constant (Km) is 293.18 ± 23.08 µM, the kcat amounted to 2.52 ± 0.136 s⁻¹ and the specificity constant (kcat/Km) is 8670 M⁻¹ s⁻¹.

Broadly, the Km is the concentration of substrate that gives half-maximal velocity. The term kcat denotes the number of substrate molecules converted per active site and unit of time at saturation. In general, kcat/Km refers to the turnover number divided by the Michaelis constant.
